Experiments:
MS2 coat protein [1] = assay: apparent KD of MS2 coat protein, switch OFF state (with FMN for OFF switches, without FMN for ON switches); designed switch direction (-1 OFF switch, 1 ON switch): -1; higher = weaker reporter binding; conditions: FMN input: 0 or 200 uM; Eterna round: R93 (includes R88 designs)
How it was run: (§1)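 Apparent KD is reported per design as the median of normalised binding-curve fits across its clusters. The RNA switches were made by on-chip transcription from Illumina sequencing clusters. SNAP-549-labelled MS2 coat protein was then added in twofold steps (0.7 or 1.5 nM to 3 µM; 0.8–1.5 h to 10–20 min per step) in 100 mM Tris-HCl pH 7.5, 80 mM KCl, 4 mM MgCl2, without or with constant ligand.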

MS2 coat protein [2] = assay: apparent KD of MS2 coat protein, switch ON state; designed switch direction (-1 OFF switch, 1 ON switch): -1; higher = weaker reporter binding; conditions: FMN input: 0 or 200 uM; Eterna round: R93 (includes R88 designs)
How it was run: as §1

Sequence	apparent KD of MS2 coat protein (MS2 coat protein [1])	apparent KD of MS2 coat protein (MS2 coat protein [2])
AGCUAGUGAGGAUAUACGAACAAGUAAAAGGACUGUAAGGGACAUGAGGAUCACCCAUGUAGAAGGCACUAGCA [Diamond 60]	92.7 nM	29.6 nM
AGGAAACAUGAGGAUCACCCAUGUAAGGAUAUGAACGAAAUAAAAUAAAAAUAAAAGUUCAGAAGGUACGAAAA [Mat - Exclusion 1 - Eli mod - D9]	40.3 nM	22.1 nM
AGGAAACAUGAGGAUCACCCAUGUCAGGAUAUUCAAAAGAAAAGAAAAGAAAGAAGAAGAAGAAGGGACAAGAA [Wazner]	44.5 nM	36.7 nM
AGGAAGUGAGGAUAUGCAGCAUAUAGUGGACGCUAUAGCAUGUAGAAGGCACAUGAGGAUCACCCAUGUUUAAA [EX4 Malc#38]	34.9 nM	30.8 nM
AGGAGACAUGAGGAUCACCCAUGUUAGGAUAUGAACGAAAAUAAAUAAAAAUAAAAGUUCAGAAGGGACGAAAA [66%, Wbt, 8]	44.7 nM	43.3 nM
AGGAUGUCAGGAUAUGCGUAAAGAAUAAAACAAAUAACAACGCAGAAGGGACAUGAGGAUCACCCAUGUUAAGA [May 45]	86 nM	42.3 nM
AGGAUGUCAGGAUAUGUGUAAAGAAUAAAACAAAUAACAACACAGAAGGGACAUGAGGAUCACCCAUGUUACCC [May 38]	17.7 nM	17.1 nM
AGGGAGUGAGGAUAUGCGAAAUAAAAAGAAGGAAAAAAAGAGCAGAAGGCACAUGAGGAUCACCCAUGUGAGAA [milkweed 11]	15.7 nM	22.6 nM
AGUAGGCGAGGAUAUACAUGAGGAUCACCCAUGUGAAAGAAAAAAGUGAGAAAGAAAAGUAGAAGGCGCUGACA [Ex 3 mod of Eli's mod of Lego's 73%]	204 nM	60.4 nM
AGUAGUACAGGAUAUACAUGAGGAUCACCCAUGUGAAAAUAAAGUGGCGUACCACAAAGUAGAAGGGUACUACA [Mat - Exclusion 3 - JL mod - D35]	138 nM	27.9 nM
AGUCAGAGAGGAUAUACAAGGGAAAAAAAAGUUAGAUCCCUACAUGAGGAUCACCCAUGUAGAAGGCUCUGACA [Ex2 Design 152: Sub-opt 16]	49.2 nM	108 nM
AGUGAGUCAGGAUAUGCGUGAAGAAUAAAAGAAAUAACAACGCAGAAGGGACAUGAGGAUCACCCAUGUACACA [May 56]	20.7 nM	23.5 nM
AGUUGGCGAGGAUAUACAUGAGGAUCACCCAUGUGAAAUCGAGAAAAAAUAGGGAAAAGUAGAAGGCGCAGACA [Ruby 63]	24.1 nM	20.6 nM
AGUUGGCGAGGAUAUACAUGAGGAUCACCCAUGUGAGAGUAAAAAGUGAGAAAGAAAAGUAGAAGGCGCUAACA [JL Lego Mod 19]	352 nM	48.8 nM
AGUUGGCGAGGAUAUACAUGAGGAUCACCCAUGUGAUAGAAAAAAGUGAGAAAGAAAAGUAGAAGGCGCUGACA [Mat - Exclusion 3 - Lego mod - D92]	254 nM	69.9 nM
AUAAAACAUGAGGAUCACCCAUGUGAGGAUAUAGGAAACAAACAAACAAACAAACAAACUAGAAGGCACAAUAA [Amethyst 10]	16.7 nM	13 nM
AUAAAACAUGAGGAUCACCCAUGUGAGGAUAUGCGAAAAAAAAAAAGAAAAAAAAAAAGCAGAAGGCACAAUAA [Amethyst 43]	34.9 nM	32.8 nM
AUAAACGGAGGAUAUACAUGAGGAUCACCCAUGUAAAAAAAAAAAAGUUCCUCAAAAAGUAGAAGGUCGAAUAA [JR_Exc003_Sub012]	13 nM	15.5 nM
AUAAAGACAGGAUAUACAUGAGGAUCACCCAUGUAAAAAAAAAAAAGUUCCUCAAAAAGUAGAAGGGUCAAUAA [JR_Exc003_Sub014]	119 nM	28.4 nM
AUAAAGUGAGGAUAUACAUGAGGAUCACCCAUGUAAGAAAUAAAAUAAAUAAAGGGAAGUAGAAGGCACAAAUA [Denovo 1]	41.3 nM	35.8 nM

Sequence	apparent KD of MS2 coat protein (MS2 coat protein [1])	apparent KD of MS2 coat protein (MS2 coat protein [2])
AUAAAUCGAGGAUAUACAUGAGGAUCACCCAUGUAAAUAAAUAAAUAAAACUCCACAAGUAGAAGGCGAAAUAA [JR_Exc003_Sub020]	20.8 nM	23.8 nM
AUAAGAGCAGGAUAUACGUAUAUGAUGCCAGGACCGCGUCCACAUGAGGAUCACCCAUGUAGAAGGGCUUGAAA [Disoleve]	19.2 nM	35.7 nM
AUAAUGAGAGGAUAUACAUGAGGAUCACCCAUGUAAUUAAAAAGGAGAGAAACAAUACGUAGAAGGCUCAUUUA [JR_Exc003+Sub601]	50.6 nM	21.6 nM
AUAGUACAUGAGGAUCACCCAUGUCAGGAUAUCGGAUAUGACAUGAAAAACAUGUUAACGAGAAGGGACUAUAA [EX1 Malc#19]	36.6 nM	26.2 nM
AUCUACCUAGGAUAUACAUGAGGAUCACCCAUGUACAGUUUCAACUAGGGAUACUCACGUAGAAGGAGGUAGAU [JR_Exc003_Sub1210]	21.2 nM	34.8 nM
AUUAAGUGAGGAUAUGAGUGAACAACAAAACAAAUAACGACUCAGAAGGCACAUGAGGAUCACCCAUGUAUAAA [May 69]	28.7 nM	31.7 nM
CAAAGGUGAGGAUAUACAGGAAUAUGACGAAAGUCAUAAAAACAUGAGGAUCACCCAUGUAGAAGGCACCACAA [E2 64% 3]	57.3 nM	37.4 nM
CACGUACAUGAGGAUCACCCAUGUUAGGAUAUGCCGAAAAAAAAAAAAAAAAAAAUCAGCAGAAGGAACGAAAC [Bilbo Confounded 19 - Jieux - Exclusion 1]	36 nM	40.2 nM
CCAAACGGAGGAUAUACAAAUUAAGGAAAAAAACGCGAAAAACAUGAGGAUCACCCAUGUAGAAGGCCGAAAAA [Ex 2 #2]	18.5 nM	20.3 nM
CCAAAGUGAGGAUAUACGCGAACAAAAAAAAAAAAGAAAGCGUAGAAGGCACAUGAGGAUCACCCAUGUCCAGG [Alfred 64% 1]	99.3 nM	41 nM
CCCAUGUCAGGAUAUCAGUAGUAAAAAAAAAAAAUUACUACUGAGAAGGGACAUGAGGAUCACCCAUGUCAAAA [EX4 315: Super Stable 15]	21 nM	80.2 nM
CCUAAACAUGAGGAUCACCCAUGUGAGGAUAUGAUGCGAAUAAAGAAAGAAGAAAGCAUCAGAAGGCACAUAGG	283 nM	41.1 nM
CCUGUGUGAGGAUAUGGUGUAAAAAAAAAAAAAUAGCUCCUCCAGAAGGCACAUGAGGAUCACCCAUGUCGUGG [Jolly's Folly 18 - Jieux - Exclusion 4]	65.8 nM	32.9 nM
CGCAAGUCAGGAUAUUCGACAGGUAAAUCAGUAGAUCAGAAGAAGAAGGGACAUGAGGAUCACCCAUGUAAGUA [JR_Exc004_Sub405]	24.3 nM	41.1 nM
CUCAAGUUAGGAUAUCCAAGAAAAGAAGAGAAAGAAAAGAAGGAGAAGGAACAUGAGGAUCACCCAUGUAAGAA [EteRNA is fun!]	38.5 nM	32.8 nM
CUCAUGUCAGGAUAUGUAGCAUGAUACGAAAGUAUCAUGCUACAGAAGGGACAUGAGGAUCACCCAUGUCCAAA [Ex4: 944]	37.7 nM	119 nM
CUCAUGUGAGGAUAUGUACAGAAAAAAAUGGGUGAAACUGUACAGAAGGCACAUGAGGAUCACCCAUGUGCAAA [EX4 377: S S Pseudoknot 2]	21.4 nM	19.1 nM
CUCUAGUAAGGAUAUGGAAGAAAAGAAAAGAAAGAAAAGAACCAGAAGGUACAUGAGGAUCACCCAUGUAAGAA [EteRNA is fun!]	23.4 nM	48.9 nM
CUCUAGUGAGGAUAUACAAGAAAAGAAGAGAAAGAAAAGAAGUAGAAGGCACAUGAGGAUCACCCAUGUAAGAA [EteRNA is fun!]	33.6 nM	24.7 nM
CUCUUGUCAGGAUAUGAAAGAAAAGAAGAGAAAGAAAAGAAUCAGAAGGGACAUGAGGAUCACCCAUGUAAGAA [EteRNA is fun!]	77.9 nM	43.6 nM

Source: the supplement of paper PMC9170038
